Here are results for 2 proteins from FireProtDB (doi:10.1016/j.bpc.2007.12.006).

For the data set the following is noted: CD, reversible: Yes, whole UniProt chain shown; for unfolding free energy: 25 °C; for heat capacity change of unfolding: Thermal.

Several values for one entry are separate records, joined by “and”; a condition that tells them apart may be missing. Equal values may be shown once.

B1: Alpha-lactalbumin wild type, P00711 (protein)
chain: MMSFVSLLLVGILFHATQAEQLTKCEVFRELKDLKGYGGVSLPEWVCTTFHTSGYDTQAIVQNNDSTEYGLFQINNKIWCKDDQNPHSSNICNISCDKFLDDDLTDDIMCVKKILDKVGINYWLAHKALCSEKLDQWLCEKL
Take B1: the unfolding free energy reads like this: (Bos taurus, pH 7, GdnHCl, Cacodylic acid 0.05 M, NaCl 0.1 M) 2.41 kcal/mol; (Bos taurus, pH 7, Urea, Cacodylic acid 0.05 M, NaCl 0.1 M) 2.35 kcal/mol. Where the note is “Bos taurus, pH 7, Cacodylic acid 0.05 M, NaCl 0.1 M”, the “heat capacity change of unfolding” value was 2.15 kcal/mol/K and 2 kcal/mol/K.

B2: Guanyl-specific ribonuclease T1 wild type, P00651 (protein)
chain: MMYSKLLTLTTLLLPTALALPSLVERACDYTCGSNCYSSSDVSTAQAAGYQLHEDGETVGSNSYPHKYNNYEGFDFSVSSPYYEWPILSSGDVYSGGSPGADRVVFNENNQLAGVITHTGASGNNFVECT
Take B2: the unfolding free energy came to 2.72 kcal/mol (Aspergillus oryzae (strain ATCC 42149 / RIB 40), pH 2.2, GdnHCl, Glycine-HCl 0.1 M, KCl 0.1 M) and 2.77 kcal/mol (Aspergillus oryzae (strain ATCC 42149 / RIB 40), pH 2.2, Urea, Glycine-HCl 0.1 M, KCl 0.1 M). Besides, the “heat capacity change of unfolding” value (Aspergillus oryzae (strain ATCC 42149 / RIB 40), pH 2.2, Glycine-HCl 0.1 M, KCl 0.1 M) was 2.5 kcal/mol/K and 2.65 kcal/mol/K.
